# Source: patent US9879306B2, “Luciferase biosensors for cAMP” (PROMEGA CORPORATION, priority 2008, dated 2018)
# Changes are numbered by the printed parent chain. In names and notes the source's numbering stands.
# T1: GPR41 (Homo sapiens, UniProt O14843)
# T1 sequence (O14843 1-346): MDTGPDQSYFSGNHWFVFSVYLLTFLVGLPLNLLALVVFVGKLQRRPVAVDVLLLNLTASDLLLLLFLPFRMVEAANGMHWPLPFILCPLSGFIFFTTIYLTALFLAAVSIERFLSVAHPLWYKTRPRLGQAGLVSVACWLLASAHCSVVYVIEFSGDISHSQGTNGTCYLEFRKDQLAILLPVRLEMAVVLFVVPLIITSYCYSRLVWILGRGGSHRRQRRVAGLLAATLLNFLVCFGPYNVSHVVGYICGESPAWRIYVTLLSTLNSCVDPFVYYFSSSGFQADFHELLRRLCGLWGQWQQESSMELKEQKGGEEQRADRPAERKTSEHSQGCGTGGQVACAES
# B1: L9: cAMP biosensor, RIIβB E284A and V316I, linker GSIAGCGDAGEG; SEQ ID NO:104, 105 (protein)
# chain: MPGAVGKVVPFFEAKVVDLDTGKTLGVNQRGELCVRGPMIMSGYVNNPEATNALIDKDGWLHSGDIAYWDEDEHFFIVDRLKSLIKYKGYQVAPAELESILLQHPNIFDAGVAGLPDDDAGELPAAVVVLEHGKTMTEKEIVDYVASQVTTAKKLRGGVVFVDEVPKGLTGKLDARKIREILIKAKKGSIAGCGDAGEGMYESFIESLPFLKSLEFSARLKVVDVIGTKVYNDGEQIIAQGDSADSFFIIESGEVKITMKRKGKSEVEENGAVEIARCSRGQYFGELALVTNKPRAASAHAIGTVKCLAMDVQAFERLLGPCMEIMKRNIATYEEQLVALFGTNMDIVAKNIKKGPAPFYPLEDGTAGEQLHKAMKRYALVPGTIAFTDAHIEVDITYAEYFEMSVRLAEAMKRYGLNTNHRIVVCSENSLQFFMPVLGALFIGVAVAPANDIYNERELLNSMGISQPTVVFVSKKGLQKILNVQKKLPIIQKIIIMDSKTDYQGFQSMYTFVTSHLPPGFNEYDFVPESFDRDKTIALIMNSSGSTGLPKGVALPHRTACVRFSHARDPIFGNQIIPDTAILSVVPFHHGFGMFTTLGYLICGFRVVLMYRFEEELFLRSLQDYKIQSALLVPTLFSFFAKSTLIDKYDLSNLHEIASGGAPLSKEVGEAVAKRFHLPGIRQGYGLTETTSAILITPEGV
# B2: 7A1: cAMP biosensor, RIIβB E284A and V316I, linker …; SEQ ID NO:113, 114 (protein)
# chain: B1 chain with I190S, A191G, C193S, D195G, A196S, E198G, A218E, I250V
# notes: cAMP biosensor, RIIβB E284A and V316I, linker …
# How the values were obtained:
# [1] = system: cyclic AMP dependent protein kinase catalytic subunit; details: serine at position 543; alkaline phosphatase restored activity; cited from earlier work
# [2] = system: catalytic subunit of protein kinase A; details: reversed by phosphatase; cited from earlier work
# GPR41 [3] = experiment: Sodium proprionate CRC with biosensor variants in HEK293 cells stably expressing GPR41; assay type: cell-based; details: ratio of RLU of FSK treated well to untreated well
# How it was run: (§1)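 GPR41-stable HEK293 cells were transiently transfected with a cAMP biosensor variant, then after 24 h equilibrated 2 h at room temperature with 5 mM EF-luc in CO2-independent medium with 10% FBS. Baseline luminescence was read, a sodium propionate concentration series added, and luminescence read after 30 min. EC50 and fold response were derived, with or without FSK.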
# GPR41 [4] = biological target: T1, GPR41; experiment: as above; assay type: cell-based
# How it was run: as §1
# dopamine D2 receptor [5] = biological target: T2, dopamine D2 receptor (Homo sapiens, UniProt P14416); experiment: Inhibitory response to dopamine with or without forskolin in HEK293 cells stably expressing D2 (Gi pathway); assay type: cell-based; details: relative to biosensor with GSSGGSGGSGGG linker
# T2 construct: expressed in transfected cells
# From the text: (§2) A mutant cAMP biosensor (termed L9; SEQ ID NO: 104; SEQ ID NO: 105) having a mutant RIIβB binding site (substitutions E284A and V316I) and a modified linker sequence (GSIAGCGDAGEG, SEQ ID NO: 57; SEQ ID NO: 128) was screened for increased light output and increased fold response when expressed in mammalian cells (primary sequence Met-(Photinus pyralis luciferase residues 359-544)-(GSIAGCGDAGEG (SEQ ID NO: 57; SEQ ID NO: SEQ ID NO: 128))-(RIIβB E284A, V316I)-(Photinus pyralis luciferase residues 4-355)-Val). For a stimulatory response, transient expression in HEK293 cells was followed by treatment with 10 μM isoproterenol (agonist of the endogenous beta2-adrenergic receptor). For an inhibitory response, transient expression in HEK293 cells that stably express the dopamine D2 receptor was followed by simultaneous treatment with dopamine in the presence or absence of forskolin
# [6] = biological target: T3, endogenous beta2-adrenergic receptor (Homo sapiens, UniProt P07550); experiment: Stimulatory response to isoproterenol in HEK293 cells (Gs pathway); assay type: cell-based; details: 10 μM isoproterenol, relative to biosensor with GSSGGSGGSGGG linker
# T3 construct: agonist of the endogenous beta2-adrenergic receptor; endogenous in cells; host or cells: HEK293
# From the text: as §2
# dopamine D2 receptor [7] = biological target: T2, dopamine D2 receptor; experiment: Forskolin, dopamine and haloperidol responses of biosensor clones in HEK293 cells stably expressing the dopamine D2 receptor; assay type: cell-based
# HEK293 cells [8] = experiment: Luminescence and fold response of biosensor clones in HEK293 cells after isoproterenol or FSK; assay type: cell-based
# HEK293 cells [9] = experiment: Screening of linker variant cAMP biosensors in HEK293 cells with isoproterenol; assay type: cell-based
# From the text: The linker variants of Example III were inserted into a CP-FF construct as in Example II. The construct further comprised a mutant RIIβb cAMP binding site containing the substitutions at […] and […]. As in Example II, the constructs were first screened in E. coli to identify linker sequences which provided improved luminescence, improved response or both. The linker variants were then screened for improved luminescence signal, response to isoproterenol, or both in HEK293 cells. On day 1, 15,000 HEK293 cells were plated to the individual wells of a 96-well plate. On day 2, cells were transiently transfected with plasmid DNAs encoding a cAMP biosensor variant comprising a variant linker sequence using the LT1 reagent from Mirus Bio. […] Isoproterenol was added to 10 μM final concentration to the individual wells, and luminescence was monitored continuously in time (Mithras luminometer; 1 second integration time). Once measurements were complete (>30 minutes), cells were lysed, and Renilla luciferase activity was measured. Biosensor luminescence (FF RLU) was normalized using the Renilla luminescence signal (RL norm), and fold-induction (response) was calculated by dividing the normalized biosensor luminescence from isoproterenol-treated wells by the normalized luminescence from control wells that received no compound addition (Figure). […]
# T2 sequence (P14416 whole entry, species assumed): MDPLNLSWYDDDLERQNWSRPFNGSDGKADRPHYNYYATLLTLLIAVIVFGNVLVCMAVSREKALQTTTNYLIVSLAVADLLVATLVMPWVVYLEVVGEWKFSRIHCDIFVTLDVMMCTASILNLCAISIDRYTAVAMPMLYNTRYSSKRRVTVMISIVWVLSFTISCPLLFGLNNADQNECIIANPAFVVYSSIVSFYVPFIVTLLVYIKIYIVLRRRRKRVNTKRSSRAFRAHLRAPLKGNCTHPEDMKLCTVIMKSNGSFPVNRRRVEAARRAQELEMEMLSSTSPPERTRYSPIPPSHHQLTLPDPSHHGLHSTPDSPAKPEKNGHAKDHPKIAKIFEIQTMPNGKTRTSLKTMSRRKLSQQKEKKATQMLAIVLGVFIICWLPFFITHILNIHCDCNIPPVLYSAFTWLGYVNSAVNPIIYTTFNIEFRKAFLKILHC
molecule,measurement,setting,value
LRRASLG,reduction of activity on addition of kinase catalytic subunit,[1],30%
RRFS: Photinus pyralis luciferase with valine 217 mutated to arginine to generate the site RRFS (Sala-Newby et al.),decrease of activity when phosphorylated,[2],up to 80%
B1,Fold Signal Change,GPR41 [3],40.9 fold
same,Fold Response Na proprionate + FSK(1 μM),GPR41 [4]; with FSK 1 μM,2.60 fold
same,Fold Response Na proprionate,"GPR41 [4]; without FSK, ratio of induced to uninduced signal",2.73 fold
same,fold response for the Gi pathway,dopamine D2 receptor [5],improved fold response
same,fold response to isoproterenol induction of the Gs pathway,[6],improved fold response
B2,Dopamine Induced,"dopamine D2 receptor [7]; 3 μM FSK + 0.3 μM dopamine, 10 minutes",1860 RLU
same,Forskolin (FSK) Induced,"dopamine D2 receptor [7]; 3 μM FSK, 10 minutes",4709 RLU
same,Halo Induced,"dopamine D2 receptor [7]; 10 μM Haloperidol pre-treatment, then 3 μM FSK + 0.3 μM dopamine",5429 RLU
same,Dopamine Response,dopamine D2 receptor [7]; RLU agonist-treated / forskolin-treated,0.38 fold
same,Forskolin (FSK) Response,dopamine D2 receptor [7]; RLU forskolin-treated / untreated,15 fold
same,Halo Response,dopamine D2 receptor [7]; RLU haloperidol then FSK + dopamine / FSK + dopamine alone,2.9 fold
same,Forskolin (FSK) Uninduced,"dopamine D2 receptor [7]; untreated (media alone), 10 minutes",307 RLU
same,Isoproterenol-5 minutes Induced,HEK293 cells [8]; 5 minutes after isoproterenol,73287 RLU
same,Forskolin (FSK) Induced,HEK293 cells [8]; 15 minutes after FSK,161755 RLU
same,Isoproterenol-15 minutes Induced,HEK293 cells [8]; 15 minutes after isoproterenol,173340 RLU
same,Isoproterenol-5 minutes Resp,"HEK293 cells [8]; RLU induced / RLU uninduced, 5 minutes after isoproterenol",60 fold
same,Forskolin (FSK) Resp,"HEK293 cells [8]; RLU induced / RLU uninduced, 15 minutes after FSK",47 fold
same,Isoproterenol-15 minutes Resp,"HEK293 cells [8]; RLU induced / RLU uninduced, 15 minutes after isoproterenol",51 fold
same,Isoproterenol-5 minutes Uninduced,"HEK293 cells [8]; uninduced cells, 5 minutes",1231 RLU
same,Forskolin (FSK) Uninduced,"HEK293 cells [8]; uninduced cells, 15 minutes",3415 RLU
same,Isoproterenol-15 minutes Uninduced,"HEK293 cells [8]; uninduced cells, 15 minutes",3415 RLU
same,Signal Improvement,"HEK293 cells [9]; fold improvement in luminescent signal over parental GS358 with E284A and V316I, HEK293, 10 μM isoproterenol",2.4 fold
same,Response Improvement,"HEK293 cells [9]; fold improvement in response to isoproterenol over parental GS358 with E284A and V316I, HEK293, 10 μM",1.4 fold
